Data reported in US20250388665A1 (ADAFRE BIOSCIENCES, published 2025).

T1: murine TNFα (murine, UniProt P06804 80-235, limits assumed, biotinylated (sites not given))
T1 construct: Bought reagent; also called biotinylated murine TNFα
T1 sequence (looked up): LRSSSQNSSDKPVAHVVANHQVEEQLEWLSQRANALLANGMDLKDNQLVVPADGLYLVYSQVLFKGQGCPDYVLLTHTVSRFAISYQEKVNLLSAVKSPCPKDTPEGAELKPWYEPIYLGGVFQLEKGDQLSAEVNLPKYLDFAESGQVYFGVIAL


Columns and labels:
murine TNFα = target: T1, murine TNFα; assay: ELISA: Fab captured via anti-human Fd, biotinylated murine TNFα titrated (x axis), prolonged dissociation at pH 7.4, A450
Method: A 96-well Costar-3366 plate was coated with 50 μL/well of 2 μg/mL sheep anti-human Fd (Southern Biotech, Prod. #2046-01) in PBS for 1 hour at room temperature. The plate was washed four times with PBS containing 0.05% Tween 20 (PBS-T) and blocked with 100 μL/well of 1% BSA-PBS for 1 hour at room temperature. Block was removed and 50 μL/well of 0.5 ug/mL sample was added. Sample dilutions were performed with 1% BSA-PBS. The plate was washed four times with PBS containing 0.05% Tween 20 (PBS-T), then biotinylated murine (Acro biosystems) TNFα was serially diluted 3-fold starting at 30 nM in B-PBS and incubated for 1 h at 25° C. (50 μL/well). The plates were washed in 500 mL of PBS-T, pH 6.0 or PBS-T, pH 7.4 for 1 hour. PBS-T was removed from the plates every 10 minutes during this wash. The plates were then washed four times with PBS-T, and incubated with 50 μL/well of Neutravidin HRP (ThermoFisher Scientific, cat. #31030), diluted 2,000-fold in B-PBS for 1 h at 25° C. The plate was washed four times with PBS-T, then developed with 50 μL/well 1-Step Ultra TMB-ELISA (ThermoFisher Scientific, Prod. #34028). The reaction was terminated by the addition of 2 N H₂SO₄ and the A450 was determined before and after addition of H₂SO₄, respectively, using a Spectramax plate reader.

human TNFα [1] = target: T2, human TNFα (human, UniProt P01375 77-233, biotinylated in the Example 2 assay (sites not given)); assay: ELISA: Fab titrated on immobilized human TNFα, 2 h dissociation at pH 7.4 with 100 nM soluble TNFα, A450
T2 construct: also called biotinylated human TNFα; soluble TNFα
T2 sequence (P01375 77-233 limits assumed): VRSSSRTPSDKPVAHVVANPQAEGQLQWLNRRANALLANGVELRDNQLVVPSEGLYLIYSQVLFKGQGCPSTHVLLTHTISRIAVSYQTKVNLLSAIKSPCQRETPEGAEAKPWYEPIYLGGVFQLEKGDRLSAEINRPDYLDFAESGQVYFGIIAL
Method: (§1) A 96-well Costar-3366 plate was coated with 50 μL/well of 1 μg/mL human TNFα (Genscript cat. #Z01001) in PBS for one hour at room temperature. The plate was rinsed twice with PBS-T and blocked with 100 μL/well of 1% BSA in PBS (B-PBS) for 1 h at 25° C. Fab samples were serially diluted 3-fold starting at 40 nM in B-PBS and were incubated for 1 h at 25° C. (50 μL/well). The plate was washed four times with PBS-T and 50 µL/well of 100 nM human TNFα in 1% BSA was added for 2 h at 25° C. The plate was washed four times with PBS-T and 50 μL/well of anti-human kappa, HRP conjugate (Southern Biotech, Prod. #2060-05) diluted 5,000-fold in B-PBS was added for 1 h at 25° C. The plate was washed three times with PBS-T, then developed with 50 μL/well 1-Step Ultra TMB-ELISA (ThermoFisher Scientific, Prod. #34028). The reaction was terminated by the addition of 2 N H₂SO₄ and the A450 was determined before and after addition of H₂SO₄, respectively, using a Spectramax plate reader.
(§2) The ELISA method used to characterize these variants was described in Example 3.

human TNFα [2] = target: T2, human TNFα; assay: ELISA: Fab titrated on immobilized human TNFα, 2 h dissociation at pH 6.0 with 100 nM soluble TNFα, A450
Method: as §1, §2

human TNFα [3] = target: T2, human TNFα; assay: ELISA: Fab titrated on immobilized human TNFα, 2 h dissociation at pH 7.4 with 100 nM soluble TNFα, A450 [cont.) C]
Method: as §1, §2

human TNFα [4] = target: T2, human TNFα; assay: ELISA: Fab titrated on immobilized human TNFα, 2 h dissociation at pH 7.4 with 100 nM soluble TNFα, A450; remark: listed apart in the source
Method: as §1

Binder	binding result (murine TNFα)	EC50 (read off the curve) (human TNFα [1]) [nM]	EC50 (read off the curve) (human TNFα [2]) [nM]	also measured
A1 VL2 (Fab, V domains shown, Fab: VH/VL joined to human kappa constant domain and human G1 CH1) VH: not shown VL: DIQMTQSPSSLSASVGDRVTITCRASQEIRNYLAWYQQKPGKAPKLLIYAASTLQSGVPSRFSGSGSGTDFTLTISSLQPEDVATYYCQHYHRAPYTFGQGTKVEIK	–	~0.4	~0.7	–
A1 VL3 (Fab, V domains shown, Fab: VH/VL joined to human kappa constant domain and human G1 CH1) VH: not shown VL: DIQMTQSPSSLSASVGDRVTITCRASQEIRNYLAWYQQKPGKAPKLLIYAASTLQSGVPSRFSGSGSGTDFTLTISSLQPEDVATYYCQHYHRAPYHFGQGTKVEIK	–	–	~0.9	–
A1 VL4 (Fab, V domains shown, Fab: VH/VL joined to human kappa constant domain and human G1 CH1) VH: not shown VL: DIQMTQSPSSLSASVGDRVTITCRASQEIRNYLAWYQQKPGKAPKLLIYAASTLQSGVPSRFSGSGSGTDFTLTISSLQPEDVATYYCHHYHRAPYTFGQGTKVEIK	–	–	~1	–
A1 VH2 (Fab, V domains shown, Fab: VH/VL joined to human kappa constant domain and human G1 CH1) VH: EVQLVESGGGLVQPGRSLRLSCAASGFTFDQYAMHWVRQAPGKGLEWVSAITWNSGHIDYADSVEGRFTISRDNAKNSLYLQMNSLRAEDTAVYYCAKVSYLPTAHHLDYWGQGTLVTVSS VL: not shown	–	–	–	binding result (human TNFα [1]): binds

Further lines, with some results ahead:

binding result (murine TNFα)	EC50 (read off the curve) (human TNFα [1]) [nM]	EC50 (read off the curve) (human TNFα [2]) [nM]	Binder	also measured
no binding (tested: log -7.5 M b-muTNF)	–	–	Ab4 Fab (Fab, V domains shown, Fab: VH/VL joined to human kappa constant domain and human G1 CH1) VH: EVQLVESGGGLVQPGGSLRLSCAASGYVFTDYGMNWVRQAPGKGLEWMGWINTYIGEPIYADSVKGRFTFSLDTSKSTAYLQMNSLRAEDTAVYYCARGYRSYAMDYWGQGTLVTVSS VL: DIQMTQSPSSLSASVGDRVTITCKASQNVGTNVAWYQQKPGKAPKALIYSASFLYSGVPYRFSGSGSGTDFTLTISSLQPEDFATYYCQQYNIYPLTFGQGTKVEIK	–
no binding (tested: log -7.5 M b-muTNF)	~3	–	AF-M2637 Fab (Fab, V domains shown, pH switch variant of Ab1; Fab: VH/VL joined to human kappa constant domain and human G1 CH1; also called control AF-M2637) VH: not shown VL: DIQMTQSPSSLSASVGDRVTITCRASQGIRNYLAWYQQKPGKAPKLLIYAASTLQSGVPSRFSGSGSGTDFTLTISSLQPEDVATYYCHHYHRAPYTFGQGTKVEIK	–
binds	–	–	A1 VL7 (Fab, V domains shown, Fab: VH/VL joined to human kappa constant domain and human G1 CH1) VH: not shown VL: DIQMTQSPSSLSASVGDRVTITCRASQEIRNHLAWYQQKPGKAPKLLIYAASTLQSGVPSRFSGSGSGTDFTLTISSLQPEDVATYYCQRYNHAPYTFGQGTKVEIK	EC50 (read off the curve) (human TNFα [3]): ~1 nM
binds	~0.7	–	A1 VH3 (Fab, V domains shown, Fab: VH/VL joined to human kappa constant domain and human G1 CH1) VH: EVQLVESGGGLVQPGRSLRLSCAASGFTFDQYAMHWVRQAPGKGLEWVSAITWNSGHIDYADSVEGRFTISRDNAKNSLYLQMNSLRAEDTAVYYCAKVHYHPTASSLDYWGQGTLVTVSS VL: not shown	EC50 (read off the curve) (human TNFα [4]): ~2 nM
